This note sets out measurements from patent US20170266311A1 (published 2017).

In assay [1] the target is T1, human NaPi2b (sodium-dependent phosphate transport protein 2B, SLC34A2) (human, UniProt O95436 1-690).
T1 construct: also called NaPiIIb; Npt2
T1 sequence: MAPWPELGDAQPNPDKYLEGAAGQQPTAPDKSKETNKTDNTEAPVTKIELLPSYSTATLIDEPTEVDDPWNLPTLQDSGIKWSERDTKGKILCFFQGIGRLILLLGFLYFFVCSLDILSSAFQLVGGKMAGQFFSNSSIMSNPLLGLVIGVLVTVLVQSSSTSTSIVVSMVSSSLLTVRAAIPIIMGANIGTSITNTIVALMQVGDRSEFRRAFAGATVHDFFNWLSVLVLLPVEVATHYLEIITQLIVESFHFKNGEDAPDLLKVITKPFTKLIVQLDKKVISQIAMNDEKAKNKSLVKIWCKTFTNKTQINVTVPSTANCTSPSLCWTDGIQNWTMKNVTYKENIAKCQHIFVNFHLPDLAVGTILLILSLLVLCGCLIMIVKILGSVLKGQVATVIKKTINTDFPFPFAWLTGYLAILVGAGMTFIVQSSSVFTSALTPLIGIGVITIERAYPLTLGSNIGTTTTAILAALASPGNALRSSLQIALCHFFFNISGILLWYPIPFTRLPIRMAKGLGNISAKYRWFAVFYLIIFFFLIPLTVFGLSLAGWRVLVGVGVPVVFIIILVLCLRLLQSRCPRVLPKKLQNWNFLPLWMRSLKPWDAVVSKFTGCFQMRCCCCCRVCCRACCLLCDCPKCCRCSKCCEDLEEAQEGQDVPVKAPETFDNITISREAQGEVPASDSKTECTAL
As to the kind of experiment: flow cytometry on OVCAR3 cells, Alexa Fluor 647 goat anti-human IgG detection, one site specific binding fit. On the procedure: (§1) TOV-21G or OVCAR3 cells were grown overnight to approximately 90% confluent cultures in media, then were released from the plate surface by treatment with Trypsin-EDTA (Gibco-Thermo Fisher Scientific, USA). The detached cells were washed once with ice cold media containing 6% goat serum and resuspended in the same media. 50,000 cells were aliquoted per well of a V-bottom, 96-well plate and incubated with a range of test articles concentrations (0.23-500 nM) in 100 μl Media (1:1 mixture MCDB105 (1.5 g/L sodium bicarbonate) and Medium 199 (2.2 g/L sodium bicarbonate plus 15% FBS)) with 6% goat serum on ice for 3 hours. The cells were then washed once with ice cold PBS and resuspended in 150 μl Media with 2% goat serum and 6 μg/ml of a secondary fluorescently labeled antibody, Alexa Fluor® 647-labelled goat anti-human IgG (Life Technologies, Cat# A-21445) for 1 hour on ice. The cells were washed once with ice cold PBS and suspended in 150 μl of ice cold PBS with 1% paraformaldehyde. The amount of fluorescence bound per cell was determined by running 5000 cells for each treatment on a MACSQuant flow cytometer (Miltenyi Biotec, Bergisch Gladbach, Germany). The median fluorescence value for each treatment was graphed, and the binding constant, KD was calculated for each test article with GraphPad Prism software by non-linear regression using the one site specific binding model.
For orientation: A flow cytometer gives signals particle by particle.

Assay [2] concerns the target T1, human NaPi2b (sodium-dependent …). In words: flow cytometry on TOV-21G cells, Alexa Fluor 647 goat anti-human IgG detection, one site specific binding fit. How it is done:
as §1

B1: XMT 1535 antibody (antibody, human IgG1, kappa, V domains shown)
VH: QVQLVQSGAEVVKPGASVKMSCKASGYTFTGYNIHWVKQAPGQGLEWIGAIYPGNGDTSYKQKFRGRATLTADTSTSTVYMELSSLRSEDSAVYYCARGETARATFAYWGQGTLVTVSS
VL: DIQMTQSPSSLSASVGDRVTITCSASQDIGNFLNWYQQKPGKTVKVLIYYTSSLYSGVPSRFSGSGSGTDYTLTISSLQPEDFATYYCQQYSKLPLTFGQGTKLELKR
notes: Full IgG1
What is called Kd is a measure of binding affinity in units of concentration. As for B1, the Kd was found to be 6.59 nM in assay [1] and 2.46 nM in assay [2].

B2: Example 1C, XMT 1535-(EG2-MI-(10 kDa PHF-BA-(AF-HPA-Ala))) (antibody, human IgG1, kappa, V domains shown)
VH: QVQLVQSGAEVVKPGASVKMSCKASGYTFTGYNIHWVKQAPGQGLEWIGAIYPGNGDTSYKQKFRGRATLTADTSTSTVYMELSSLRSEDSAVYYCARGETARATFAYWGQGTLVTVSS
VL: DIQMTQSPSSLSASVGDRVTITCSASQDIGNFLNWYQQKPGKTVKVLIYYTSSLYSGVPSRFSGSGSGTDYTLTISSLQPEDFATYYCQQYSKLPLTFGQGTKLELKR
modifications: EG2-MI-(10 kDa PHF-BA-(AF-HPA-Ala)) polymer-drug scaffolds attached by maleimide to cysteines of the partially reduced antibody; positions and chain not stated; DAR about 11:1 to about 15:1
For the molecule B2, the Kd in assay [1] was determined as 3.84 nM; in assay [2] it was 3.97 nM.
